From PMC5595370

Key:
[1] = target: HPV59 L1 C175S mutant after limited trypsin digestion (crystallized pentamer) (human papillomavirus type 59); test: crystal structure
[2] = target: HPV59 L1 C175S mutant after limited trypsin digestion (crystallized pentamer) (human papillomavirus type 59); test: AUC

Substance: HPV59 L1 C175S mutant after limited trypsin digestion (crystallized pentamer) (domain or fragment)
- stoichiometry N [1]: 5
- stoichiometry N [2]: 5
